From patent publication US6441131B1, “Peptides, method for assaying human pepsinogen II or human pepsin II, and assaying kit” (Ono Pharmaceutical Co., Ltd., priority 1997, dated 2002)
Non-standard residues stand in square brackets, D forms with d. Primed or numbered codes have the meaning given here. No end group written: not given here. *: point of attachment. DCHA″ = 3,5-dichloro-4-hydroxyaniline residue, Oc1c(Cl)cc(N*)cc1Cl; Phe(4-Cl) = N[C@@H](Cc1ccc(Cl)cc1)C(=O)O; Phe(4-I) = N[C@@H](Cc1ccc(I)cc1)C(=O)O; 2Nal = N[C@@H](Cc1ccc2ccccc2c1)C(=O)O; pNA = O=[N+]([O-])c1ccc(N*)cc1; NH(3-MeOPh) = COc1cccc(N*)c1; Nva = CCC[C@H](N)C(=O)O; Sar = CNCC(=O)O

Columns and labels:
human pepsin I = human pepsin I (Homo sapiens, UniProt P0DJD7); test: Digesting of the peptide substrate by human pepsin I (assay by HPLC); assay type: biochemical; details: peptide 0.5 mM, tartaric acid or glycine buffer pH2.0, 37° C., released amino acid derivative (II-A) by HPLC
Sequence of human pepsin I (P0DJD7 63-388): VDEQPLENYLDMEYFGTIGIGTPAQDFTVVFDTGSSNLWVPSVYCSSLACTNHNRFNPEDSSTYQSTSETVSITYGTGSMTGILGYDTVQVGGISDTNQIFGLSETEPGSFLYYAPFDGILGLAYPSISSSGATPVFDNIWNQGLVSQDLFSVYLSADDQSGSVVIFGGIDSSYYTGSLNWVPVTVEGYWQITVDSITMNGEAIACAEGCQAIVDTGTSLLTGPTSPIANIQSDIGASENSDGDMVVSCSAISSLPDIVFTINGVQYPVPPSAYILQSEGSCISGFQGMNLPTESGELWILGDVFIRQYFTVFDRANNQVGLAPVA
Experimental: (§1) Tartaric acid buffer or glycine buffer (pH2.0) containing each peptide (0.5 mM) prepared in Examples 1 and 2(3) etc. (Examples in Table 3 described hereinafter).
(§2) An aqueous solution of human pepsin I or human pepsin II (0.01 mg/ml)
(§3) Enzyme solution I (0.1 ml) was added to Reagent (1.0 ml). After incubation of the mixture at 37° C. for 10, 30, 60 minutes, the mixture solution (0.3 ml) was collected. To the collected solution, 2N-NaOH (0.025 ml) was added to terminate the reaction. After addition of 2N-HCl (0.025 ml) to the mixture, protein was removed by the ultrafiltration. The assaying the amino acid derivatives of the formula (II-A) [drawing 19]
(§4) which was released after digesting by human pepsin in the obtained solution was carried out by HPLC using C18 column. The ratio of digesting rate of pepsin II/pepsin I was calculated according to the result from assay by HPLC. Such assay is carried out to confirm that a substrate was digested by pepsin I or pepsin II correctly and that the amino acid derivatives of the formula (II-A) were released.

human pepsin II = target: T1, human pepsin II (Homo sapiens, UniProt P20142); test: Digesting of the peptide substrate by human pepsin II (assay by HPLC); assay type: biochemical; details: for ration of digesting rate (pepsin II/ pepsin I): calculated from the HPLC digesting rates, pepsin II over pepsin I; for pepsin II digesting rate: peptide 0.5 mM, tartaric acid or glycine buffer pH2.0, 37° C., released amino acid derivative (II-A) by HPLC
T1 sequence (P20142 60-388): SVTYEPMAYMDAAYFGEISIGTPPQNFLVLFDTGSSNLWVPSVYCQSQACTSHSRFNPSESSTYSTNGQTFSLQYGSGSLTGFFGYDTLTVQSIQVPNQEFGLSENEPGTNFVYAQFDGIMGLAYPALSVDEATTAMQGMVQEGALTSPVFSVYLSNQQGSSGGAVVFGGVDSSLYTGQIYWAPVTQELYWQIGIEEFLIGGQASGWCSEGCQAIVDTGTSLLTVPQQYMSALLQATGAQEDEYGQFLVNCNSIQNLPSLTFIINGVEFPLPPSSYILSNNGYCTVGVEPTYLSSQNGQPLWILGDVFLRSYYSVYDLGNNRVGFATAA
Experimental: as §1, §2, §3, §4

Row | Substance | pepsin I digesting rate (human pepsin I) [μM/min · 1 μg Enz] | ration of digesting rate (pepsin II/ pepsin I) (human pepsin II) | pepsin II digesting rate (human pepsin II) [μM/min · 1 μg Enz]
1 | 2(3): Q=Pro Gln Gln Ala; 4-I-Phenyl; R4=H; (EE)m single bond; Z=p-NA (PQQA[Phe(4-I)]G-pNA; also: TFA salt) | 0.0020 | 2065.1 | 4.23
2 | 2(7): Q=Pro Gln Gln Ala; 4-Cl-Phenyl; R4=Me; (EE)m single bond; Z=p-NA (PQQA[Phe(4-Cl)]A-pNA; also: TFA salt) | 0.0335 | 104.4 | 3.50
3 | 2(11): Q=Pro Gln Gln Ala; 2-Naphthyl; R4=n-Pr; (EE)m single bond; Z=p-NA (PQQA[2Nal][Nva]-pNA; also: TFA salt) | 0.0235 | 174.9 | 4.10
4 | 2(14): Q=Ac Lys Pro Gln Gln Ala; 4-I-Phenyl; R4=Me; (EE)m single bond; Z=p-NA (Ac-KPQQA[Phe(4-I)]A-pNA; also: TFA salt) | 0.0094 | 410.2 | 3.85
5 | 2(16): Q=Asn Pro Gln Gln Ala; 4-I-Phenyl; R4=Me; (EE)m single bond; Z=p-NA (NPQQA[Phe(4-I)]A-pNA; also: TFA salt) | 0.0082 | 1094.8 | 8.95
6 | 2(18): Q=Ala Pro Gln Gln Ala; 4-I-Phenyl; R4=Me; (EE)m single bond; Z=p-NA (APQQA[Phe(4-I)]A-pNA; also: TFA salt) | 0.0122 | 757.0 | 9.20
7 | 2(22): Q=Pro Gln Gln Asn; 2-Naphthyl; R4=Me; (EE)m single bond; Z=p-NA (PQQN[2Nal]A-pNA; not fully specified) | 0.0578 | 222.6 | 12.87
8 | 2(23): Q=Pro Gln Gln Gln; 2-Naphthyl; R4=Me; (EE)m single bond; Z=p-NA (PQQQ[2Nal]A-pNA; also: TFA salt) | 0.0191 | 308.8 | 5.90
9 | 2(24): Q=Pro Gln Gln Gly; 2-Naphthyl; R4=Me; (EE)m single bond; Z=p-NA (PQQG[2Nal]A-pNA; also: TFA salt) | 0.0058 | 2081.6 | 12.06
10 | 2(25): Q=Pro Gln Gln Met; 2-Naphthyl; R4=Me; (EE)m single bond; Z=p-NA (PQQM[2Nal]A-pNA; also: TFA salt) | 0.0063 | 889.7 | 5.56
11 | 2(33): Q=Pro Gln Glu Glu; 2-Naphthyl; R4=Me; (EE)m single bond; Z=p-NA (PQEE[2Nal]A-pNA; also: TFMSA salt) | 0.0632 | 402.3 | 25.41
12 | 2(34): Q=Pro Gln Asp Glu; 2-Naphthyl; R4=Me; (EE)m single bond; Z=p-NA (PQDE[2Nal]A-pNA; also: TFMSA salt) | 0.0216 | 711.9 | 15.40
13 | 2(36): Q=Pro Asn Ser Glu; 2-Naphthyl; R4=Me; (EE)m single bond; Z=p-NA (PNSE[2Nal]A-pNA; also: TFMSA salt) | 0.1096 | 193.5 | 21.22
14 | 2(39): Q=Pro Met Ser Glu; 2-Naphthyl; R4=Me; (EE)m single bond; Z=p-NA (PMSE[2Nal]A-pNA; also: TFMSA salt) | 0.2277 | 201.1 | 45.79
15 | 2(45): Q=Pro Thr Ser Glu; 2-Naphthyl; R4=Me; (EE)m single bond; Z=p-NA (PTSE[2Nal]A-pNA; also: TFMSA salt) | 0.2512 | 161.4 | 40.55
16 | 2(51): Q=Gly Leu Ser Glu; 2-Naphthyl; R4=Me; (EE)m single bond; Z=p-NA (GLSE[2Nal]A-pNA; also: TFMSA salt) | 0.1631 | 333.8 | 54.43
17 | 2(53): Q=Gln Leu Ser Glu; 2-Naphthyl; R4=Me; (EE)m single bond; Z=p-NA (QLSE[2Nal]A-pNA; also: TFMSA salt) | 0.0998 | 621.0 | 61.96
18 | 2(54): Q=Lys Leu Ser Glu; 2-Naphthyl; R4=Me; (EE)m single bond; Z=p-NA (KLSE[2Nal]A-pNA; also: TFMSA salt) | 0.2739 | 176.7 | 48.39
19 | 2(56): Q=Ser Leu Ser Glu; 2-Naphthyl; R4=Me; (EE)m single bond; Z=p-NA (SLSE[2Nal]A-pNA; also: TFMSA salt) | 0.0194 | 562.6 | 10.94
20 | 2(57): Q=Thr Leu Ser Glu; 2-Naphthyl; R4=Me; (EE)m single bond; Z=p-NA (TLSE[2Nal]A-pNA; also: TFMSA salt) | 0.0284 | 660.9 | 18.78
21 | 2(61): Q=Ac Lys Asn Leu Ser Glu; 2-Naphthyl; R4=Me; (EE)m single bond; Z=p-NA (Ac-KNLSE[2Nal]A-pNA; also: TFMSA salt) | 0.1681 | 219.0 | 36.81
22 | 2(63): Q=Pro Asn Asn Leu Ser Glu; 2-Naphthyl; R4=Me; (EE)m single bond; Z=p-NA (PNNLSE[2Nal]A-pNA; also: TFMSA salt) | 0.1763 | 169.2 | 29.84
23 | 2(78): Q=Leu Ser Glu; 2-Naphthyl; R4=Me; (EE)m=Leu; Z=p-NA (LSE[2Nal]AL-pNA; also: TFMSA salt) | 2.6240 | 20.74 | 54.41
24 | 2(80): Q=Leu Ser Glu; 2-Naphthyl; R4=Me; (EE)m=Gly; Z=p-NA (LSE[2Nal]AG-pNA; also: TFMSA salt) | 0.1500 | 105.48 | 15.77
25 | 2(83): Q=Sar Leu Ser Glu; 2-Naphthyl; R4=Me; (EE)m=Ala; Z=m-ASD ([Sar]LSE[2Nal]AA-{NH(3-MeOPh)}; also: TFMSA salt) | 2.3660 | 29.87 | 70.66
26 | Nα-Me-GlyLeuSerGluAla(2-Naph)Ala-pNA.TFMSA ([Sar]LSE[2Nal]A-pNA; also: TFMSA salt) [Example 2(70)] | 0.3128 | 158.4 | 49.56
27 | Nα-Me-GlySerGlyAla(2-Naph)AlaAla-DCHA.TFMSA ([Sar]SG[2Nal]AA-{DCHA″}; also: TFMSA salt) [Example 2(84)] | 0.2767 | 119.5 | 33.07
28 | ProLeuSerGluAla(2-Naph)Ala-pNA (PLSE[2Nal]A-pNA) [Example 1] | 0.2795 | 198.2 | 55.40
